Assay: soluble on expression in E. coli; label from the status in PepcDB or PDB records

Question: For “MGSDKIHHHHHHLDLAPEDYYGAGNFWKEASQPKAFMLGLHAQLRSYYDMFYTLGELRGGTQRVGTSSLNTSLNYADIRSQNISEDIPGISNWNGLYSPIMQVNHFIQEVENGCTFLDDATRSRYLGQAYGMRALYYFMLYRTFGGVPLITKVDILDGKPSADKFYVERATPEATMEFIKADINKSENYFGNNTSFDAYDWSRYATLMLKAEIYMWAAKVSITGFTATGATDLQTAKTALSGIIGHFELMDNFASIFSCDNKKNTEIIFAMPFIEGEASNDGGRFLYQDAVFLGQAYGRNGKVIEKDTLNLKGTGGVFRDEYTEDFWKTFKEGDSRRDATFMEYYMKNDNGTLSEFGCVMKKRIGTINSNDNRIYISDIPVYRYADALLMMAEIENGLNNPCASYINEVRKRAYGDTFEENKYTEGSYAENELAILQERDKEFVSEGKRWFDVLRMHDASGRSLVFSANANYPGTNPILGTEEAYKMLWPVNIGTLNVNPLLTQTPGYGKK”, which “soluble on expression in E. coli” value is on record?
Answer: Its value is “not soluble”.

Question: Which “soluble on expression in E. coli” value does the source give for “MLILGIDTSTKICTCSIFDSENGVIAETSLSVKKNHSNIVMPIIDNLFKISDLTINDIDKIAVAIGPGSFTGVRIALGIAKGLAMALNKPLIAINELDILEAIASGNENEIIPLIDARKERVYYKYQNKYVDDYLINLTSNFDKNKKYIFVGDGAINYKNILKDNLGENAIILPMYNSFPRASILCELALNKEEANIYTLEPEYISKSRAEKHFLEHHHHHH” here?
Answer: The value was “soluble”.

Question: With “GMSAGQSSLSFAHGDETHPIEQKAFIGVDSAAGNVVKQFHAALQMGNEAIVRQSLAANVQIYEGGKVERSLTEYANHHMLADMAYLKGLTITPKEHQITITGDIAISTSISHAQGEYKGKSIDSMTMETLVLIKQADGRWKITHVHWS” as the sequence, how does the “soluble on expression in E. coli” value read?
Answer: The value was “soluble”.

Question: With “MSLKGRVAVRTVDAIPQTFAINGIFRISRGSKTSAQVIAVSIAESGYIGRGECVPYARYGETIESVMDQIRSMTPAIEAGMDLSELQSAMAPGAARNAVDCALWDLRAQKTRQSLASVIELGHELQPVLTAFTISLDAPAAMGKAAAVHEHLPILKLKLGGDGDLERVRAVRAAAPHARLMVDANEAWSIDHLRAFAPEFAAMGVELIEQPLPADADDFLKSFNSPVPLAADESCRTLMSLSKIVGKYEIANIKLDKAGGLTEALSLQAAARASGLGTMVGCMVATSLSMAPGIILAQRADVVHLDGPLLLAEDRTPSLRYSGATLYPPEPEVWGGEGHHHHHH” as the sequence, how does the “soluble on expression in E. coli” value read?
Answer: Its value is “soluble”.

Question: For “MSLNGKPAVFPEVKSIKITGNKALTTEEIREVMSTSTRNSFFGTGLFAGARRPFIADDFEKDISLIRKLYTFKGYFFADVEPTVKRSKNGDVSITIRIRENQPTLLDSLSYAGLDSIPENLRSRYLKKSLLKLQQIFSVEKLIEERDRTLDFFREHGYTFFHPDSIRITVDTLGLHAGVRFDISLPGRYAYGPVKVFVHDPLKKDNPAIAKTFVRDNVSVTIYGHQKFSPKVFSSAIAWKQGALTRQSLEQRTLENFGSTNLFSSISMQKDAARAGAIPITIDLDPAPKHQIEPKLLVDNRYGSLFVGGALSYENRNLFGAGQQLKLSTNYGRQLSSDTNVLSSLSADQYDKLIPYEFNIKADLVIPRLGKQGSYYNGTVEYAQSKLPVLLDSKRELIRATYSTRPTRVSKLDFDFFELEVARKDSLRGFQQLFKNDLAQNIGINPADPVAVNRGLDSLLQTRLNQTFRLRYSLSNREKSTRSKRSPIWNFSVTAEESGSLLWLIDKYIDKKSYAGFTDSDPQIFGTPYNQYVKLDTQLAVTKNLSPKRQVAARIALGWMSPYGKADTTPEDHRFYAGGSNSMRGWVFGTLGPGSCPNAAVSNFGADIKAELGLEYRIQFFKVFGQESGIALFTDAGNIWDRTGPYAFSLRSLTQDFAWDWGAGLRIGSPIGPFRFDFAWKLHDPANPQPWRFSQTKLTDFTFNFGIGETFEGHHHHHH”, which “soluble on expression in E. coli” value is on record?
Answer: The value was “not soluble”.

Question: With “MGHHHHHHSHMVVVAAAPNPADGTPKVLLLSGQPASAAGAPAGQALPLMVPAQRGASPEAASGGLPQARKRQRLTHLSPEEKALRRKLKNRVAAQTARDRKKARMSELEQQVVDLEEENQKLLLENQLLREKTHGLVVENQELRQRLGMDALVAEEEAEAKGNEVRPVAGSAESAALRLRAPLQQVQAQLSPLQNISPWILAVLTLQIQSLISCWAFWTTWTQSCSSNALPQSLPAWRSSQRSTQKDPVPYQPPFLCQWGRHQPSWKPLMN” as the sequence, how does the “soluble on expression in E. coli” value read?
Answer: The value was “not soluble”.

Question: With “MGSDKIHHHHHHMTEITTLSQFLTTANTQFQVYDLGRRVQHIDALAFHQIESLLAPYPYPIQGHAQLGLVFWQQSAQPYIWFLKLPLDEQGLLSPAPRSQFIQMILDALGRDLTQELTEAQQEQFANHPFSFKPNQHKLALFNALVRQQLGQPASSQYEFAAQYLSEQAVIGESSAVENESHSWEQLGLQGIADVCVRAQSLDNMDSLIRSFDFSPLPVHAALCQCLEHLPLEPSLAEKIYLLFEQASNEHKASYLAALASSPSLSIKAIAHLAQHNLLDANHLVTIAARNWQALKDDSCRKSYLEALALQEQGFFNQVFADIVAIPSLRQALLLDLRNPERSNILSIAIGGLFKAAQS” as the sequence, how does the “soluble on expression in E. coli” value read?
Answer: Its value is “not soluble”.

Question: For “MDKEQRNIVVFNASKRELFTSSSGYKSLQKKLRAQWKIQSIKEELTLEKLQGVKLWITAGPREKFTAAELEVLKQYLDSGGALLVMIGEGGELKYDTNINFLLEEFGIMVNNDAVIRNVYYKYFHPKEALVSNGVLNREISRAAGKVVTGVIDEENTGNNSQALTFVYPYGATLNVMKPAVAILSTGSVCFPLNRPVLAFHHSKNAGKLAVLGSCHMFSDQYLDKEENSRIMDVVFQWLTTDSIHLNQIDAEDPEITDYMMLPDTGSLSERLRVCLQEGDENPRDFTSLFDMSLLKLHTNTLPSVLDAYKQLNVKHEALQLITPQFETPLPPLQPAVFQPAFRDLPPPMLDLFDLDETFSSEKVRLAQLSNKCTDDDLEFYVRKCGDILGVTGNLDKDKRDAKHILEHVFFQVVEFKKLNEEHDVDTAEARFSMY”, which “soluble on expression in E. coli” value is on record?
Answer: Its value is “soluble”.

Question: Which “soluble on expression in E. coli” value does the source give for “MTTPPPRMLPSGDTAITVEFGRDISDESNRRVLALDRKLKQAPIAGILETVPTYRSLLVHYDPETIGFGALSDQLTALAHTSDESETVAKRRWRIPVCYGGEHGIDLEDAAQALNITPDALVARHAAGDYRVAMIGFTPGWSYLSGLDPALAMPRRQAPRLHTPAGTISVGGIQTGIQCLAGPSGWHLLGRTPVRTYQLHREPIFLLEPGDAISFAQIDAKEFAERDDAASHGEVVAELLSALEHHHHHH” here?
Answer: The value was “soluble”.

Question: Which “soluble on expression in E. coli” value does the source give for “MTQFETERLILRPMTAADHDALADMIFDPQVVAYLRYRRVQSPAAFEQLFTTHFLADTTTVFGIERRRDHQLIGFYEFHGSGATGELTYALSPAAWGHGYVAEAGNCLMHYGFETLNYETIEAHYASANPNSGRVMAKMGMQAAGELHTFTSDKGEVIHVMRYLLTKATWRQLSA” here?
Answer: Its value is “not soluble”.

Question: Which “soluble on expression in E. coli” value does the source give for “MPMDSYEKRGYLDREFRLFHLSACLPGDISYHYHDFDKILIFLRGDVDYVIEGRSYHLNPYDIVLVGHHSIHKPLLRSGDVYERIVVYLSPGYVDSFRTENCDLSRCFKDAREHCSDVLRISSLKISSLYESLIRLEKACREDGYAKELYCRILFLEFMIHLNRAASGSHLEYVSTSPSSEKVLEIMRYISENPSADFTIDSLASRFFLSKFHMMRLFKQETGYTINSYINEKRLLMAKELLGRNLPVTEVCFRCGFRNYAAFLRAYKKNFGENPKSGKRPEGRTSVDNLHAPRTEHRLQKKPLSK” here?
Answer: The value was “not soluble”.

Question: With “MANLTRRQWLKVGLAVGGMVTFGLSYRDVAKRAIDGLLNGTSGKVTRDRIFGNALIPEAQAQTHWQQNPQQTIAMTQCFGCWTQCGIRARVNADGKVIRIAGNPYHPLSQEHPIDSSVPFSEAMEQLAGESGLDARSTACARGATLLESLYSPLRLLEPMKRVGKRGEGKWQRISFEQLIEEVVEGGDLFGEGHVDGLRAIHAPDTPIDAKHPSFGPKTNQLLVTNTSDEGRDAFLRRFALNSFGSKNFGAHGAYCGLAYRAGSGALMGDLDKNPHVKPDWENVEFALFMGTSPAQSGNPFKRQARQLASARLRENFQYVVVAPALPLSTVLADPRGRWQPVMPGSDSALAMGMIRWIMDNQRYNADYLAIPGVQAMQQAGEQSWTNATHLVIADELPTLAGQHLTLRHLTPDGEETPVVLNTDGELVDASTCRQARLFVTQYVTLADGQRVTVKSGLQRLKEAAEKLSLAQYSEQCGVPEAQIIALAETFTSHGRKAAVISHGGMMAGNGFYNAWSVMMLNALIGNLSLSGGVFVGGGKFNGVSDGPRYNMNSFAGKVKPSGLSIARSKTAYEASEEYRDKIAGGQSPYPAKAPWYPFVAGQLTELLTSALEGYPYPLKAWISNMSNPFYGVPGLRAVAEEKLKDPRRLPLFIAIDAFMNETTALADYIVPDTHNFESWGFTAPWGGVASKATTARWPVVAPATHRTADGQPVSMEAFCIAVAKRLHLPGFGDRAITDPQGNTFPLNRAEDFYLRVAANIAFMGKTPVALANQEDISLTGVSRILPAIQHTLKADEVGRVAFIYSRGGRFAPEDSGYTEQRLGNAWKKPLQIWNADVAAHRHAITGERFSGCPVWYPARLSDGRAIDDQFPIGQWPLKLISFKSNTMSSSTAVIPRLHHVKPANLVALNPQDGERYGLQHGDRVRIITPGGQVVAQISLLNGVMPGVIAIEHGYGHREMGATQHSLDGVPMPYDPQIRAGINLNDLGFADPTRTITNTWLDWVSGAAVRQGLPAKIERI” as the sequence, how does the “soluble on expression in E. coli” value read?
Answer: The value was “not soluble”.

Question: With “QDKPVFVYRLIARGTVEEKIQHLQQEKAALADGLFSEGNGDGWKLDEADIDAL” as the sequence, how does the “soluble on expression in E. coli” value read?
Answer: Its value is “soluble”.

Question: For “MAHHHHHHMDDRDAELDIDEDGIFTCEEVNALTSAMWKAEGLTRVPRSRRHHRQAPPQQRTSAAAVDSLQPGPLAASTTTPGGGSVTDVTLQPLLNTTGEDGGHRSLGGDIRGLPSSFSNAPLFASATTTAAGLSSTSSPQPTSQALHHHHNDVDRQLGGNSNTSGRRMAGGGGSVGGEGSRSSSSVYEVLIQRVLAMDTASDIWSLGVLLYGMCADTADAQQQEEQQQHQASASTTTPTLNPPHATAAGSSPVRAHEGVAGTLPPAMPTCTCASRLAQRAFAALLGDLYDLAVTGVPSGDRGNNGWSCDGVDVEQLDEAADDHLRWPRSCALEEEVMQAIGEAGYTHVFASVLASMLSPVAARRPSAGDIVNQLRLVTTGAPATLASNIMRGGGGGLADADDEYSVARQSPPPRIQHSGGASDATSSVMLHEQTACMALRQR”, which “soluble on expression in E. coli” value is on record?
Answer: Its value is “not soluble”.

Question: For “MKLDPQTLAHITSATLGNYNRVADDFREGTRDHDVSQNIDALLRHIEGSAPWQILDFGCGPGRDLKTFTAMGHVAVGLDGSERFAEMARAETGCEVFQQNFLELDLPQGRFDGIFANAVLFHIPRQELPRVLRELYATLKPGGVLFSSNPRGQNQEGWQGERYGAYHDLETWRQLLTDAGFAELEHYYRPLEHHHHHH”, which “soluble on expression in E. coli” value is on record?
Answer: Its value is “soluble”.

Question: With “MKNSKAILQVPGTMKIISAEIPVPKEDEVLIKVEYVGICGSDVHGFESGPFIPPKDPNQEIGLGHECAGTVVAVGSRVRKFKPGDRVNIEPGVPCGHCRYCLEGKYNICPDVDFMATQPNYRGALTHYLCHPESFTYKLPDNMDTMEGALVEPAAVGMHAAMLADVKPGKKIIILGAGCIGLMTLQACKCLGATEIAVVDVLEKRLAMAEQLGATVVINGAKEDTIARCQQFTEDMGADIVFETAGSAVTVKQAPYLVMRGGKIMIVGTVPGDSAINFLKINREVTIQTVFRYANRYPVTIEAISSGRFDVKSMVTHIYDYRDVQQAFEESVNNKRDIIKGVIKISD” as the sequence, how does the “soluble on expression in E. coli” value read?
Answer: The value was “soluble”.

Question: For “MAESFTTTNRYFDNKHYPRGFSRHGDFTIKEAQLLERHGYAFNELDLGKREPVTEEEKLFVAVCRGEREPVTEAERVWSKYMTRIKRPKRFHTLSGGKPQVEGAEDYTDSDD”, which “soluble on expression in E. coli” value is on record?
Answer: The value was “soluble”.

Question: For “MGHHHHHHSHMHGWTWSVPKFMKRMKVPDYKDKAVFGVPLIVHVQRTGQPLPQSIQQALRYLRSNCLDQVGLFRKSGVKSRIHALRQMNENFPENVNYEDQSAYDVADMVKQFFRDLPEPLFTNKLSETFLHIYQYVSKEQRLQAVQAAILLLADENREVLQTLLCFLNDVVNLVEENQMTPMNLAVCLAPSLFHLNLL”, which “soluble on expression in E. coli” value is on record?
Answer: The value was “not soluble”.

Question: For “EVVVTGMQKMDKRLFTGATQQLTADNVKLDGLPDISRGLEGRAAGVSVQNVSGTFGTAPKIRVRGATSIYGSSKPLWVVDGVIMEDAIDVGPDDLSSGDAETLISSAIAGLNSDDIESFQILKDGSATSIYGARAMAGVIVVTTKKGK”, which “soluble on expression in E. coli” value is on record?
Answer: Its value is “not soluble”.
